According to patent publication US20250313611A1 (VIB VZW, published 2025):

T1: recombinant HKU1 spike protein (HCoV-HKU1, UniProt Q5MQD0 13-1276)
T1 sequence: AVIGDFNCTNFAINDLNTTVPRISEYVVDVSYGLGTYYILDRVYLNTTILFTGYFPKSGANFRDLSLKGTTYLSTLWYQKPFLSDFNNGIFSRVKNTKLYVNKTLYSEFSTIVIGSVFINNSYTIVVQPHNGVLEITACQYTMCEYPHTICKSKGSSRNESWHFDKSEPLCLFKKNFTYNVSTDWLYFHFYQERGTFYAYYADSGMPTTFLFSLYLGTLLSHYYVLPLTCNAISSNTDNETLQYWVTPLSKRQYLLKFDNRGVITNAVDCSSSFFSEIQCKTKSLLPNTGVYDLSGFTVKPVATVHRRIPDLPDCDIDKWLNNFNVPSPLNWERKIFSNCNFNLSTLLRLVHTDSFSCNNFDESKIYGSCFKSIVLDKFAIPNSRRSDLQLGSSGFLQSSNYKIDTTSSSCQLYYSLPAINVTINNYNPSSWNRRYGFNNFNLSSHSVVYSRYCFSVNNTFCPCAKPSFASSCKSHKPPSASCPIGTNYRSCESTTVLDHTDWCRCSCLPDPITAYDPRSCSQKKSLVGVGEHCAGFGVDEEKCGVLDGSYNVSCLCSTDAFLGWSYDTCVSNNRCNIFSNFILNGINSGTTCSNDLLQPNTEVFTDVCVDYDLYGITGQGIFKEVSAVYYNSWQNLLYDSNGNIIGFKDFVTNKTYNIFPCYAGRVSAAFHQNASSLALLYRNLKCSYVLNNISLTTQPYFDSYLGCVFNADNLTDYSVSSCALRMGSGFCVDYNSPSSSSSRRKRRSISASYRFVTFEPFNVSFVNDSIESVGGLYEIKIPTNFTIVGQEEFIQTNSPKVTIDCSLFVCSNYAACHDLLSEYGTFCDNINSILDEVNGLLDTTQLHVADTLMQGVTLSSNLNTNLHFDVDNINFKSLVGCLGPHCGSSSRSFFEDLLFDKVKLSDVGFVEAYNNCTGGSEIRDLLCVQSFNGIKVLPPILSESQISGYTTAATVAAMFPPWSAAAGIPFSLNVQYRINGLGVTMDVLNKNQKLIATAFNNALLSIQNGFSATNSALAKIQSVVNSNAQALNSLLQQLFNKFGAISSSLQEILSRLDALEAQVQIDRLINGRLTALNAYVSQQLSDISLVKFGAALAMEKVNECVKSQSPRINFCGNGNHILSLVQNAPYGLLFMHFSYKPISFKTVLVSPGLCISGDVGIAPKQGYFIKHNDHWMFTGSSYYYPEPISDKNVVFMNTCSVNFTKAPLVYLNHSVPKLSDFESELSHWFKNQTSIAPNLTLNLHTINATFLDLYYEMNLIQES

T2: recombinant MERS-COV spike protein (MERS-CoV, UniProt K9N5Q8 18-1291)
T2 sequence: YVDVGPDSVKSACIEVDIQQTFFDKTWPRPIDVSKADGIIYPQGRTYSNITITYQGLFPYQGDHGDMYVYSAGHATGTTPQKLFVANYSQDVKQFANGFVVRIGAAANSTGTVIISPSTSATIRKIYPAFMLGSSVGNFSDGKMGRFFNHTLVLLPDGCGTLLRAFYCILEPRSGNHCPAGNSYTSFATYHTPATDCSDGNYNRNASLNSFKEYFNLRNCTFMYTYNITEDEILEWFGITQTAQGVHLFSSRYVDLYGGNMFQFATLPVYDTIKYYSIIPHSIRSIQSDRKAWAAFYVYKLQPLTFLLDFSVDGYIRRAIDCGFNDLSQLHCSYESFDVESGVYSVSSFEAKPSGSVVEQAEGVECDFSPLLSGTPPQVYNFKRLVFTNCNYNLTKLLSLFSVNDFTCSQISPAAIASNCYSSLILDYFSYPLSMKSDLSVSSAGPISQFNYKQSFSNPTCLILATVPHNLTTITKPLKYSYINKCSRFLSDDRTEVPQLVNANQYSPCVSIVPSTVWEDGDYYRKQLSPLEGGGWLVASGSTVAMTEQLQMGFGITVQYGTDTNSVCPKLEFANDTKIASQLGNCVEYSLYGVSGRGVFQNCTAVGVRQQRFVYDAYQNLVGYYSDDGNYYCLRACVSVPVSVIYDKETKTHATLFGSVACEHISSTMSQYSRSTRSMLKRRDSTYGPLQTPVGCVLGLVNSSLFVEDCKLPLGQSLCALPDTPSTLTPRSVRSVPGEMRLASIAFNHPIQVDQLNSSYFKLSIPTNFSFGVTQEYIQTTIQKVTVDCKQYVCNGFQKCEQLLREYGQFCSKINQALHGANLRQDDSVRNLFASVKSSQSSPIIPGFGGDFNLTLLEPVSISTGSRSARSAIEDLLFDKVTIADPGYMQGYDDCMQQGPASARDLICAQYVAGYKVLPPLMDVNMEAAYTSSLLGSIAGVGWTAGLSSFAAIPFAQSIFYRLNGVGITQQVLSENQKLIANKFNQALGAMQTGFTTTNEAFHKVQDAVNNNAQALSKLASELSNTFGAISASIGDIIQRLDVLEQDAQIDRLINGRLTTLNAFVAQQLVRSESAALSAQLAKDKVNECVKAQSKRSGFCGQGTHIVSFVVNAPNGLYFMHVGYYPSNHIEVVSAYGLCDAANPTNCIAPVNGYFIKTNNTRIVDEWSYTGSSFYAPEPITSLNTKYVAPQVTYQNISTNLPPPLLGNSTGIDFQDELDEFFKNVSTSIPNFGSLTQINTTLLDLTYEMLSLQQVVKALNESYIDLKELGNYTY


Legend:
[1] = target: T1, recombinant HKU1 spike protein; test: ELISA, periplasmic extract 1/10, heat map of binding (%)
[2] = target: T2, recombinant MERS-COV spike protein; test: as above

Binder	binding result [1]	binding result [2]
VHH R4_DC6 (VHH) VHH: QVQLQESGGGLVQAGDSLRLSCAASGRILSTFTMGWFRQAPGKEREFVAAMRWNGGTKNYADSVKGRFTISRDNANSVVYLQMNSTKPEDTAVYYCAAAYVSKANYGSLWYRTPSLYDYWGQGTQVTVSS	no binding (tested: extract 1/10, concentration not given)	no binding (tested: extract 1/10, concentration not given)
VHH R3_DC23 (VHH) VHH: QVQLQESGGGLVQAGDSLTLSCAVSGRIFSTYTMGWFRQAPGKEREFVAAVRWGAGTIYYADSMKGRFTISRDSAKNTVDLQMNSTKPEDTAVYYCGAAYVSKANYGSLWYQDSRRYDYWGQGTQVTVSS	no binding (tested: extract 1/10, concentration not given)	no binding (tested: extract 1/10, concentration not given)
VHH R3_C4 (VHH) VHH: QVQLQESGGGLVQAGDSLRLSCAVSGRPFSTYTMGWFRQAPGKEREFVAAMRWSGGTIYYADSVKGRFTISRDNDKNTVNLEMNSLKPEDTAVYYCAAAYVSKANYGSLWYRASGLYDYWGQGTQVTVSS	no binding (tested: extract 1/10, concentration not given)	no binding (tested: extract 1/10, concentration not given)
VHH R4_DC16 (VHH) VHH: QVQLQESGGGLVQAGDSLRLSCAVSGRPFSTYTMGWFRQAPGKEREFVAAMRWSGGTIYYADSVKGRFTISRDNAQNTVNLQMNSLKPEDTAVYYCAAAYVSKANYGSSWYRNSGLYDYWGQGTQVTVSS	no binding (tested: extract 1/10, concentration not given)	no binding (tested: extract 1/10, concentration not given)
VHH R4_DC13 (VHH) VHH: QVQLQESGGGLVQTGDSLRLSCAVSGRPFSTYTMGWFRQAPGKEREFVASMRWSGGTVYYSDSVKGRFTISRDNDKNTVNLQMNNLKPEDTAVYYCAAAYVSKANYGSFWYRNSDLYDYWGQGTQVTVSS	no binding (tested: extract 1/10, concentration not given)	no binding (tested: extract 1/10, concentration not given)
VHH R3_DC20 (VHH) VHH: QVQLQESGGGLVQAGDSLRLSCAVSGRPFSTYTMGWFRQAPGKEREFVAAMRWSGGTIYYADSVKGRFTISRDNAQNTVNLQMNSLEPEDTAVYYCAAAYVSKANYGSLWYRNSGLYDYWGQGTQVTVSS	no binding (tested: extract 1/10, concentration not given)	no binding (tested: extract 1/10, concentration not given)
VHH R4_DC9 (VHH) VHH: QVQLQESGGGLVQAGDSLRLSCAASGRIFSTYTMGWFRQAPGMEREFVAAIRWSGSTVYYADSVKGRFTISRDNAKNTVYLQMNSLKPEDTAVYYCAAARVSKANYGTLWYRASGLYDYWGQGTQVTVSS	no binding (tested: extract 1/10, concentration not given)	no binding (tested: extract 1/10, concentration not given)
VHH R4_DC20 (VHH) VHH: QVQLQESGGGLVQTGDSLRLSCAVSGRPFSTYTMGWFRQAPGKEREFVASMRWSGGTMNYADSVKGRFTISRDNDQNTVNLQMNSLKPEDTAVYYCAAAYVSKANYGSLWYRNSGLYDYWGQGTQVTVSS	no binding (tested: extract 1/10, concentration not given)	no binding (tested: extract 1/10, concentration not given)
VHH R3_DC2 (VHH) VHH: QVQLQESGGGLVQTGDSLRLSCAVSGRPFSTYTMGWFRQAPGKEREFVASMRWSGGTKYYSDSVKGRFSISRDNDQNTVNLQMNSLKPEDTAVYYCAAAYVSKANYGSLWYRNSGLYDYWGQGTQVTVSS	no binding (tested: extract 1/10, concentration not given)	no binding (tested: extract 1/10, concentration not given)
VHH R3_DC9 (VHH) VHH: QVQLQESGGGLVQTGDSLRLSCAVSGRPFSTYTMGWFRQAPGKEREFVASMRWSGGTMYYSDSVKGRFTISRDNDKNTVNLQMNSLKPEDTAVYYCAAAYVSKANYGSLWYRNSGLYDYWGQGTQVTVSS	no binding (tested: extract 1/10, concentration not given)	no binding (tested: extract 1/10, concentration not given)
